Experimental findings from patent US20200377563A1 (Pieris, published 2020) are described below.

B1: cynomolgus monkey IL-17A (ligand)
chain: GIAIPRNSGCPNSEDKNFPRTVMVNLNIHNRNTSTNPKRSSDYYNRSTSPWNLHRNEDPERYPSVIWEAKCRHLGCVKADGNVDYHMNSVPIQQEILVLRREPRHCPNSFRLEKILVSVGCTCVTPIVHHVA
notes: also called cIL-17A
B2: negative control SEQ ID NO: 43 (other)
chain: QDSTSDLIPAPPLSKVPLQQNFQDNQFQGKWYVVGLAGNAILREDKDPQKMYATIYELKEDKSYNVTSVLFRKKKCDYWIRTFVPGCQPGEFTLGNIKSYPGLTSYLVRVVSTNYNQHAMVFFKKVSQNREYFKITLYGRTKELTSELKENFIRFSKSLGLPENHIVFPVPIDQCIDG
B3: benchmark 3 (antibody, human IgG1, kappa, V domains shown)
VH: QVQLVQSGAEVKKPGASVKVSCKVSGKTFWSYGINWVRQAPGKGLEWMGYIYIGTGYTEPNPKYKGRVTMTEDTSTDTAYMELSSLRSEDTAVYYCATIGGYYGNFDQWGQGTTVTVSS
VL: DVVMTQSPLSLPVTLGQPASISCRSSQSLLISGGKTYLNWFQQRPGQSPRRLIYLVSKLDQGVPDRFSGSGSGTDFTLKISRVEAEDVGVYYCWQGTYFPLTFGQGTKLEIKR
B4: marmoset IL-17A (ligand)
chain: GIASPQNPGCPNAEDKNFPRTVMVNLNIRNRNTNSKRASDYYNRSSSPWNLHRNEDPERYPSVIWEAKCRHLGCVDADGNVDYHMNSVPIQQEILVLRREPRHCTNSFRLEKMLVSVGCTCVTPIVRHVA
notes: also called marmoset monkey IL-17A
B5: human IL-23 (ligand)
chain 1: RAVPGGSSPAWTQCQQLSQKLCTLAWSAHPLVGHMDLREEGDEETTNDVPHIQCGDGCDPQGLRDNSQFCLQRIHQGLIFYEKLLGSDIFTGEPSLLPDSPVGQLHASLLGLSQLLQPEGHHWETQQIPSLSPSQPWQRLLLRFKILRSLQAFVAVAARVFAHGAATLSP
chain 2: IWELKKDVYVVELDWYPDAPGEMVVLTCDTPEEDGITWTLDQSSEVLGSGKTLTIQVKEFGDAGQYTCHKGGEVLSHSLLLLHKKEDGIWSTDILKDQKEPKNKTFLRCEAKNYSGRFTCWWLTTISTDLTFSVKSSRGSSDPQGVTCGAATLSAERVRGDNKEYEYSVECQEDSACPAAEESLPIEVMVDAVHKLKYENYTSSFFIRDIIKPDPPKNLQLKPLKNSRQVEVSWEYPDTWSTPHSYFSLTFCVQVQGKSKREKKDRVFTDKTSATVICRKNASISVRAQDRYYSSSWSEWASVPCS
notes: Heterodimer of p19 and p40; Biotinylated in the ELISA formats; also called hIL-23; hIL23
B6: lipocalin mutein SEQ ID NO: 46 (designed binder)
chain: QDSTSDLIPAPPLSKVPLQQNFQDNQFHGKWYVVGEAGNLLLREDKDPRKMTATIYELREDKSYDVTRVEFGVKTYKYQIGTFVPGSQPGEFTLGGIKSMPGMTSFLVRVVSTDYNQHAMVFFKYVYQNREYFEITLYGRTKELTSELKENFIRFSKSLGLPENHIVFPVPIDQAIDG
B7: lipocalin mutein SEQ ID NO: 45 (designed binder)
chain: B6 chain with L41I, R59K, Y76R, Q79R, D114N
B8: benchmark antibody 2 (antibody, human IgG4, kappa, V domains shown)
VH: QVQLVQSGAEVKKPGSSVKVSCKASGYSFTDYHISWVRQAPGQGLEWMGVINPEYGTTDYNQRFKGRVTITADESTSTAYMELSSLRSEDTAVYYCARYDYFTGTGAYWGQGTLVTVSS
VL: DIVMTQTPLSLSVTPGQPASISCRSSQSLKHSRGNTFLHWYLQKPGQSPQLLIYKVSNRFIGVPDRFSGSGSGTDFTLKISRVEAEDVGVYYCSQSTHYPFTFGQGTKLEIKR
B9: fusion protein of SEQ ID NO: 7 (designed binder)
chain: QDSTSDLIPAPPLSKVPLQQNFQDNQFHGKWYVVGEAGNLLLREDKDPRKMTATIYELKEDKSYDVTRVEFGAKTYKYQIGTFVPGSQPGEFTLGGIESMPGMTSFLVRVVSTNYNQHAIVFFKYVYQNREYFEITLYGRTKELTSELKENFIRFSKSLGLPENHIVFPVPIDQAIDGSGGGGSLAEAKEAANAELDSYGVSDFYKRLIDKAKTVEGVEALKDAILAALPSAWSHPQFEK
B10: mouse IL-23 (ligand)
chain 1: VPRSSSPDWAQCQQLSRNLCMLAWNAHAPAGHMNLLREEEDEETKNNVPRIQCEDGCDPQGLKDNSQFCLQRIRQGLAFYKHLLDSDIFKGEPALLPDSPMEQLHTSLLGLSQLLQPEDHPRETQQMPSLSSSQQWQRPLLRSKILRSLQAFLAIAARVFAHGAATLTEPLVPTA
chain 2: MWELEKDVYVVEVDWTPDAPGETVNLTCDTPEEDDITWTSDQRHGVIGSGKTLTITVKEFLDAGQYTCHKGGETLSHSHLLLHKKENGIWSTEILKNFKNKTFLKCEAPNYSGRFTCSWLVQRNMDLKFNIKSSSSSPDSRAVTCGMASLSAEKVTLDQRDYEKYSVSCQEDVTCPTAEETLPIELALEARQQNKYENYSTSFFIRDIIKPDPPKNLQMKPLKNSQVEVSWEYPDSWSTPHSYFSLKFFVRIQRKKEKMKETEEGCNQKGAFLVEKTSTEVQCKGGNVCVQAQDRYYNSSCSKWACVPCRVRS
notes: also called mIL-23

Residue numbers refer to the chain shown, from its start. “And” between values parts separate entries of the source, which are not always exact repeats. Equal values may be shown once. Read-outs that look alike come from different tables or passages of the source.

The target in test [1] is T1, lipocalin mutein of SEQ ID NO: 1.
T1 construct: Mutein of human tear lipocalin; also called Tlc mutein
The test can be described thus: solution competition ELISA: 0.25 nM SEQ ID NO: 1 pre-incubated with varied ligand, free mutein captured on immobilised biotinylated hIL-17A. On the procedure:
In the following detailed experimental protocol, incubation and washing steps were performed as described above in the competition ELISA protocol. A 384-well plate suitable for fluorescence measurements (Greiner FLUOTRAC™ 600, black flat bottom, high-binding) was coated with 20 μl of Neutravidin at a concentration of 5 μg/ml in PBS over night at 4° C. After washing, the Neutravidin-coated wells were blocked with 100 μl blocking buffer (PBS-T/BSA) for 1h at room temperature.
(In an ELISA, binding on a coated surface is turned into a signal by an enzyme label.)

Test [2] has as its target B5. Nature of the test: competition ELISA (MSD): biotinylated hIL-23 tracer pre-incubated with the titrated control, free hIL-23 captured on coated soluble hIL-23R. As for the experimental part:
(§1) All incubation steps were performed with shaking 300 rpm, and the plate was washed after each incubation step with 80 μl PBS/0.05% Tween 20 for five times using a Biotek EL405 select CW washer. […] After washing, the receptor-coated wells were blocked with 60 μl PBS-T/BSA for 1 h at room temperature.
(§2) After washing, 60 μl MSD Read Buffer T (2×) was added to each well and the plate was read within 15 min.
(§3) The resulting ECL signal was measured using the SECTOR Imager 2400 (Meso Scale Discovery).

In test [3] the target is B5. The test can be described thus: cell-based or functional assay.
Test [4] deals with T2, lipocalin mutein of SEQ ID NO: 2.
T2 construct: Mutein of human lipocalin 2 (NGAL); Also used as negative control in the IL-17A cell assay; also called hNGAL mutein
Nature of the test: solution competition ELISA: 0.5 nM SEQ ID NO: 2 pre-incubated with varied ligand, free mutein captured on immobilised biotinylated hIL-23.

The target in test [5] is B5. The test can be described thus: SPR (Biacore T200), hIL-23 amine-coupled on chip, mutein as analyte.
Test [6] addresses B5. Nature of the test: competition ELISA (MSD), biotinylated hIL-23 pre-incubated with binder, free hIL-23 captured on coated hIL-23R.
Test [7] addresses human IL-17A (human, UniProt Q16552 24-155, limits assumed). Nature of the test: cell-based or functional assay.
Test [8] deals with B5. The test can be described thus: SPR (Biacore T200), biotinylated binder captured on CAP chip, hIL-23 as analyte, buffer with 350 mM NaCl. On the procedure: To this end, undiluted Biotin CAPture Reagent was applied at a flow rate of 2 μL/min for 300 s. […] The reference channel was loaded with Biotin CAPture Reagent only.
Applying a flow rate of 30 μL/min, a single cycle kinetics approach was used with a sample contact time of 300 s and a dissociation time of 4000 s or 7200 s. After ligand immobilization, all 5 concentrations were applied consecutively in ascending order before the dissociation was monitored. All measurements were performed at 25° C.
In general terms: SPR reads the build-up and loss of mass on a sensor chip optically.

Test [9] concerns the target B5. The test can be described thus: competition ELISA (MSD), biotinylated hIL-23 pre-incubated with binder, free hIL-23 captured on coated hIL-23R. On the procedure:
as §1, §2, §3
The source holds these as a separate data set.

For orientation: IC50 means the point on the concentration scale where inhibition reaches its midpoint. High values mean weaker potency in that assay, low ones greater potency in that assay. By Kd is commonly meant a measure of binding affinity in units of concentration. The low end stands for higher affinity, the high end for lower affinity. What is called koff is the first-order rate constant of dissociation. For orientation: kon means a measure of how fast the partners come together.

T1 sequence (chain, as listed by the source): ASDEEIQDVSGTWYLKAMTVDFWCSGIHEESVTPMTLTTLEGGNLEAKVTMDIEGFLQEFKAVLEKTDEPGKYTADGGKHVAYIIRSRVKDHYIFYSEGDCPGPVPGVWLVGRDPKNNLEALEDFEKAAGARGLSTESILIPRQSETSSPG

Molecule B1 yielded an IC50 in test [1] of 0.1 nM.
With B2, in test [2], the binding result is recorded as “no binding”.
On to B3, for which, in test [3], the “hIL-23-induced proliferation of Ba/F3 cells with hIL-23R and hIL-12Rβ1, EC50, average” value came out at 3 nM; the “hIL-23-induced proliferation of Ba/F3 cells, EC50, single experiment” value is 3.1 nM and 2.9 nM.
As to B4, the IC50 in test [1] was 0.2 nM.
In the case of B5, the IC50 in test [4] amounted to 0.9 nM.
Regarding B6, the “hIL-23-induced proliferation of Ba/F3 cells with hIL-23R and hIL-12Rβ1, EC50” value in test [3] was determined as 5.4 nM. Besides, in test [5], binding was put at a Kd of 0.6 nM, the koff was 4e-05 s⁻¹ and the association rate constant (kon) came out at 70000 M⁻¹ s⁻¹. In test [6], this molecule came in with an IC50 of 1.1 nM.
On the same counts, the results for B7 are 3.7 nM, 0.1 nM, 3e-05 s⁻¹, 300000 M⁻¹ s⁻¹ and 0.1 nM.
Take B8: in test [7], the “IL-17A-induced G-CSF secretion in U87-MG cells, EC50, average” value is 0.12 nM; the “IL-17A-induced G-CSF secretion in U87-MG cells, EC50, single experiment” value is 0.14 nM and 0.1 nM.
Molecule B9 displayed a Kd in test [8] of 2.4 nM. For the same molecule, in test [9], the IC50 amounted to 1.11 nM.
For B10, the IC50 in test [4] came out at 0.5 nM.
